The values that follow come from patent US20250320291A1.

This experiment deals with biotinylated CD19 (UniProt P15391). The experiment in a line: yeast surface display of the scFv, flow cytometry titration of biotinylated CD19, 1:1 equilibrium binding fit, mean±SD of 3 trials. A general note: In flow cytometry, cells or beads pass a laser one at a time.
Chain of UniProt P15391 (P15391 20-291 limits assumed): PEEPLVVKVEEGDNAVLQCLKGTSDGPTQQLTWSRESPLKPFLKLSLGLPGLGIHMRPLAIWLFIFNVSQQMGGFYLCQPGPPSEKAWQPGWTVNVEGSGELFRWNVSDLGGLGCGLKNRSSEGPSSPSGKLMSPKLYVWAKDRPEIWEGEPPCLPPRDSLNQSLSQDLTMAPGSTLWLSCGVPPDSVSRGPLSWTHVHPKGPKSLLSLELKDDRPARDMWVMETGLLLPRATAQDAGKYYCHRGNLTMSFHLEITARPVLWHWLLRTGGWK

One may read the Kd as the free concentration of one partner at which half of the binding sites on the other are occupied at equilibrium, for simple one-to-one binding. Higher therefore signals lower affinity. FMC63 parental murine anti-CD19 scFv: the Kd was 4.8 nM.
